Assay results as given in US12448462 (dated 2025).

T1: MUC1 (human, UniProt P15941 1039-1148)
T1 chain: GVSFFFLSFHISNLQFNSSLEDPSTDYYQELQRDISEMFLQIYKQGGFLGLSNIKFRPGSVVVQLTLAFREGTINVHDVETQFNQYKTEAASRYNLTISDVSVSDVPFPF

B1: anti-Muc1 T4E3 Fab (Fab, V domains shown)
VH: QVQLVQSGGGLVQPGGSLRLSCAASGFTFDDYAMHWVRQAPGKGLEWVSGISWNSGSIGYADSVKGRFTISRDNAKNSLYLQMNSLRAEDTALYYCAKDIGSGSYYNYYYGMDVWGQGTTATISS
VL: SSELTQDPAVSVALGQTVRITCQGDSLRSYYASWYQQKPGQAPVLVIYGKNSRPSGIPDRFSGSNSGSTASLTITGAQAEDEADYYCNSRDRYGNSLVIFGGGTKLTVL
B2: T4E3 scFv (scFv, V domains shown)
VH: B1 VH
VL: B1 VL

Target: T1, MUC1
Test: flow

| Binder | EC50 [nM] |
| --- | --- |
| B1 | 16 |
| B2 | 7.48 |
